# According to patent US20090123452A1 (TORREY PINES INSTITUTE FOR MOLECULAR STUDIES AND CATALYST …, published 2009):
# Where a chain is given by its changes, count along the chain named. Names and notes keep the numbering of the source. Like-named read-outs stand apart in the source and are kept apart here.
# T1: mutant antithrombin III AT3/SLGR-KI (human, UniProt P01008 33-464)
# T1 construct: RCL residues IAGRSL are replaced by SLGRKI; also called AT3 (AT3/SLGR-KI)
# T1 chain: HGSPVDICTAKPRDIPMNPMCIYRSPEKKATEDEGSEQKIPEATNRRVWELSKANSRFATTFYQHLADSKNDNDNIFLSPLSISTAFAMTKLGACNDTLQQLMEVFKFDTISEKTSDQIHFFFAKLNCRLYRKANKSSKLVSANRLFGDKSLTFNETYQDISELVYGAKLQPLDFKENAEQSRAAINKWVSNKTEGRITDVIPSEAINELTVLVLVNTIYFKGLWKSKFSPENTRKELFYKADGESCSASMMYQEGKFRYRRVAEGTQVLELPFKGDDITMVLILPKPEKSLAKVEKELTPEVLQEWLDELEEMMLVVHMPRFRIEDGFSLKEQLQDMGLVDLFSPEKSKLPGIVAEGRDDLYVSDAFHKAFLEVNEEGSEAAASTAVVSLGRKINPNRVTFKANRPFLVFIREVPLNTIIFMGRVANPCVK
# B1: Mutant MT-SP1 clone CPC-0023085 (phage) (enzyme)
# chain: VVGGTDADEGEWPWQVSLHALGQGHFCGASLISPNWLVSAAHCYIDDRGFRYSDPTQWTAFLGLHDQSQRSAPGVQERRLKRIISHPFFNDFTFDYDIALLELEKPAEYSSMVRPISLPDASHVFPAGKAIWVTGWGHTQYGGTGALILQKGEIRVINQTTCENLLPQQITPRMMCVGFLSGGVDSCQGDSGGPLSSVEADGRIFQAGVVSWGDGCAQRNKPGVYTRLPLFRDWIKENTGVSGSSGGGSEGGGSEGGGSEGGGSGGGSGSGDFDYEKMANANKGAMTENADENALQSDAKGKLDSVATDYGAAIDGFIGDVSGLANGNGATGDFAGSNSQMAQVGDGDNSPLMNNFRQYLPSLPQSVECRPFVFSAGKPYEFSIDCDKINLFRGVFAFLLYVATFMYVFSTFANILRNKES
# notes: I41F/C122S
# B2: Mutant MT-SP1 clone CPC-0019595 (phage) (enzyme)
# chain: B1 chain with F26I, I131T, N158D, T160A, F179L, D214V
# notes: C122S/I136T/N164D/T166A/F184(A)L/D217V (chymotrypsin numbering); the STII leader is not counted
# B3: Mutant MT-SP1 clone CPC-0024153 (phage) (enzyme)
# chain: B1 chain with A121T, V241G
# notes: I41F/C122S/A126T/V244G
# B4: Mutant MT-SP1 clone CPC-0025366 (phage) (enzyme)
# chain: B1 chain with D8E, T93P, T139I
# notes: D23E/I41F/T98P/C122S/T144I
# B5: Mutant MT-SP1 clone CPC-0025582 (phage) (enzyme)
# chain: B1 chain with L165F, V241G
# notes: I41F/C122S/L171F/V244G
# B6: Mutant MT-SP1 clone CPC-0025720 (phage) (enzyme)
# chain: B1 chain with F26I, H138R, Q169R
# notes: C122S/H143R/Q175R
# B7: Mutant MT-SP1 clone CPC-0025876 (phage) (enzyme)
# chain: B1 chain with L165F
# notes: I41F/C122S/L171F
# B8: Mutant MT-SP1 clone CPC-0026100 (phage) (enzyme)
# chain: B1 chain with I148V, V241G
# notes: I41F/C122S/I154V/V244G
# B9: Mutant MT-SP1 clone CPC-0026232 (phage) (enzyme)
# chain: B1 chain with L37M, V124D, Q218L
# B10: Mutant MT-SP1 clone CPC-0027399 (phage) (enzyme)
# chain: B1 chain with F26I, F94L
# notes: F99L/C122S
# B11: Mutant MT-SP1 clone CPC-0027484 (phage) (enzyme)
# chain: B1 chain with F26I, N90K
# notes: N95K/C122S
# B12: Mutant MT-SP1 clone CPC-0027706 (phage) (enzyme)
# chain: B1 chain with F26I, F92Y, I131V, Q188H, S197I
# notes: F97Y/C122S/I136V/Q192H/S201I
# B13: Mutant MT-SP1 clone CPC-0027797 (phage) (enzyme)
# chain: B1 chain with F26I, H65R, P126S, D214V
# notes: H71R/C122S/P131S/D217V
# B14: Mutant MT-SP1 clone CPC-0028017 (phage) (enzyme)
# chain: B1 chain with F26I, D214V
# notes: C122S/D217V
# B15: Mutant MT-SP1 clone CPC-0028333 (phage) (enzyme)
# chain: B1 chain with F26I, T59K, F88L, F92Y, D214V
# notes: T65K/F93L/F97Y/C122S/D217V
# B16: Mutant MT-SP1 clone CPC-0028341 (phage) (enzyme)
# chain: B1 chain with F26T, P167S, Q206L
# notes: I41T/C122S/P173S/Q209L
# B17: Mutant MT-SP1 clone CPC-0025387 (phage) (enzyme)
# chain: B1 chain
# notes: I41F/C122S
# Legend:
# [1] = target: T1, mutant antithrombin III AT3/SLGR-KI; experiment: phage display selection: complex with His-tagged AT3-SLGRKI bait captured by anti-His antibody on plate
# [2] = target: T1, mutant antithrombin III AT3/SLGR-KI; experiment: as above
Binder,binding result [1],binding result [2]
B1,binds,–
B2,binds,–
B3,binds,–
B4,binds,–
B5,binds,–
B6,binds,–
B7,binds,–
B8,binds,–
B9,binds,–
B10,binds,–
B11,–,binds
B12,binds,–
B13,binds,–
B14,binds,–
B15,binds,–
B16,–,binds
B17,binds,–
